From PMC9138527

How the values were obtained:
Assay in all cases: EMSA
[1] = test system: Protamine-like proteins mixture (PL-II, PL-III, PL-IV), 1 nM Cr(VI)-exposed mussels (Mytilus galloprovincialis); conditions: mussels exposed to 1 nM Cr(VI); saturation not reached; DNA (150 ng pGEM3 or 450 ng sperm DNA) plus PLs in ultrapure water, 30 uL, 5 min, room temperature; TBE to 1x added just before the run; 1% (plasmid) or 0.6% …
[2] = test system: Protamine-like proteins mixture (PL-II, PL-III, PL-IV), 10 nM Cr(VI)-exposed mussels (Mytilus galloprovincialis); conditions: mussels exposed to 10 nM Cr(VI), DNA (150 ng pGEM3 or 450 ng sperm DNA) plus PLs in ultrapure water, 30 uL, 5 min, room temperature, TBE to 1x added just before the run, 1% (plasmid) or 0.6% …
[3] = test system: Protamine-like proteins mixture (PL-II, PL-III, PL-IV), 100 nM Cr(VI)-exposed mussels (Mytilus galloprovincialis); conditions: mussels exposed to 100 nM Cr(VI), DNA (150 ng pGEM3 or 450 ng sperm DNA) plus PLs in ultrapure water, 30 uL, 5 min, room temperature, TBE to 1x added just before the run, 1% (plasmid) or 0.6% …
[4] = test system: Protamine-like proteins mixture (PL-II, PL-III, PL-IV), unexposed mussels (Mytilus galloprovincialis); conditions: DNA (150 ng pGEM3 or 450 ng sperm DNA) plus PLs in ultrapure water, 30 uL, 5 min, room temperature, TBE to 1x added just before the run, 1% (plasmid) or 0.6% …
[5] = scale: wt/wt protein/DNA at almost complete saturation

Substance | binding signal (wt/wt protein/DNA at saturation) [1] | binding signal (wt/wt protein/DNA at saturation) [2] | binding signal (wt/wt protein/DNA at saturation) [3] | binding signal (wt/wt protein/DNA at saturation) [4] | binding signal [2, 5] | binding signal [3, 5] | binding signal ([4]; unexposed, scale: wt/wt protein/DNA at almost complete saturation)
pGEM3 plasmid | > 1.8 | 0.8 | 0.8 | 0.8 | – | – | –
sperm genomic DNA | – | – | – | – | 0.6 | 0.6 | 0.6
